Source: patent publication US20190194356A1

B1: monoclonal antibody 9M284 (antibody, human IgG2, lambda)
heavy: QVQLVQSGAEVKKPGSSVKVSCKASAFTFDSFGMHWVRQAPGQGLEWMGLLWSDGSGEYYADSAKGRFTISRDNSKNTLYLQMNSLRSDDTAVYYCARAMGAIYYYYAMDVWGQGTTVTVSSASTKGPSVFPLAPCSRSTSESTAALGCLVKDYFPEPVTVSWNSGALTSGVHTFPAVLQSSGLYSLSSVVTVPSSNFGTQTYTCNVDHKPSNTKVDKTVERKCCVECPPCPAPPVAGPSVFLFPPKPKDTLMISRTPEVTCVVVDVSHEDPEVQFNWYVDGVEVHNAKTKPREEQFNSTFRVVSVLTVVHQDWLNGKEYKCKVSNKGLPAPIEKTISKTKGQPREPQVYTLPPSREEMTKNQVSLTCLVKGFYPSDIAVEWESNGQPENNYKTTPPMLDSDGSFFLYSKLTVDKSRWQQGNVFSCSVMHEALHNHYTQKSLSLSPG
light: QSALTQPPSVSGSPGQSVTISCTGTSSNIGNQFVSWYQQLPGTAPKLMIYEYNKRPSGVPDRFSGSKSGNTASLTISGLQTGDEADYYCGSWDSSLSGYVFGTGTRVTVLGQPKAAPSVTLFPPSSEELQANKATLVCLISDFYPGAVTVAWKADSSPVKAGVETTTPSKQSNNKYAASSYLSLTPEQWKSHRSYSCQVTHEGSTVEKTVAPTECS
B2: monoclonal antibody 9M283 (antibody, human IgG2, lambda, V domains shown)
VH: QVQLVQSGAEVKKPGSSVKVSCKASAFTFDSFGMHWVRQAPGQGLEWMGLLWSDGSDEYYADSAKGRFTISRDNSKNTLYLQMNSLRSDDTAVYYCARALGAIYSYYAMDVWGQGTTVTVSS
VL: QSALTQPPSVSGSPGQSVTISCTGTSSNIGNQFVSWYQQLPGTAPKLMIYEYNKRPSGVPDRFSGSKSGNTASLTISGLQTGDEADYYCGSWDSSLSGYVFGTGTRVTVLG

Biological target: cynomolgus PCSK9 antigen (NCBI NM_001112660.1) (cynomolgus)
Experiment: BLI (Octet Red 96), antibody on anti-human IgG Fc (AHC) biosensor, PCSK9 in solution, 1:1 model

| Kd [nM] | koff [s⁻¹] | kon [M⁻¹ s⁻¹] | Binder |
| --- | --- | --- | --- |
| < 0.001 | < 1e-07 | 298000 | B1 |
| 0.08 | 2.46e-05 | 308000 | B2 |
